Laboratory results reported in patent US20160091498.

Target: purified histone H4 (New England Biolabs), P62805

B1: purified ACK1 (protein)
chain: GEGPLQSLTCLIGEKDLRLLEKLGDGSFGVVRRGEWDAPSGKTVSVAVKCLKPDVLSQPEAMDDFIREVNAMHSLDHRNLIRLYGVVLTPPMKMVTELAPLGSLLDRLRKHQGHFLLGTLSRYAVQVAEGMGYLESKRFIHRDLAARNLLLATRDLVKIGDFGLMRALPQNDDHYVMQEHRKVPFAWCAPESLKTRTFSHASDTWMFGVTLWEMFTYGQEPWIGLNGSQILHKIDKEGERLPRPEDCPQDIYNVMVQCWAHKPEDRPTFVALRDFLLEAQPTDMRALQDFEEPDKLHIQMNDVITVIEGRAENYWWRGQNTRTLCVGPFPRNVVTSVAGLSAQDISQPLQNSFIHTGHGDSDPRHCW
In the case of B1, the “in vitro kinase assay with all the four core histones, immunoblotting with pY88-H4 antibodies” value is reported as “Presence of band exclusively when ACK1 was incubated with H4” and the “in vitro kinase assay, immunoblotting with pY88-H4 and pTyr antibodies” value is reported as “indeed H4 is directly Tyr-phosphorylated by ACK1”.
